In doi:10.1101/2023.06.22.546118 (bioRxiv, 2023):

Legend:
crystal structure = biological target: the molecule itself; experiment: crystal structure
[1] = biological target: T1, HSV-1 UL31 full length (1-306) with R229L (SUP_UL31) (herpes simplex virus 1 (HSV-1), UniProt P10215 1-306, R229L); experiment: cryo-EM structure
T1 sequence: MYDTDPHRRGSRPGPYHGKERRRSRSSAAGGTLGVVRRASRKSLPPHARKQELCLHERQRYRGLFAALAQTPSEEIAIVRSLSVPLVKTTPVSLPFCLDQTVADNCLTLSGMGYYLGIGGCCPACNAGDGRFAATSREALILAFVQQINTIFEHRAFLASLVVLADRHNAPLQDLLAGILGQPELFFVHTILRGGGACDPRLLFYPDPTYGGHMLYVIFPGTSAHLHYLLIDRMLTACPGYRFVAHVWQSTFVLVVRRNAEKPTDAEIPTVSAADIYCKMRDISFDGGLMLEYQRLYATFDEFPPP

cryo-EM structure = biological target: the molecule itself; experiment: cryo-EM structure
[2] = biological target: T2, HSV-1 UL31 full length (1-306), wild type (herpes simplex virus 1 (HSV-1), UniProt P10215 1-306); experiment: SEC
T2 sequence: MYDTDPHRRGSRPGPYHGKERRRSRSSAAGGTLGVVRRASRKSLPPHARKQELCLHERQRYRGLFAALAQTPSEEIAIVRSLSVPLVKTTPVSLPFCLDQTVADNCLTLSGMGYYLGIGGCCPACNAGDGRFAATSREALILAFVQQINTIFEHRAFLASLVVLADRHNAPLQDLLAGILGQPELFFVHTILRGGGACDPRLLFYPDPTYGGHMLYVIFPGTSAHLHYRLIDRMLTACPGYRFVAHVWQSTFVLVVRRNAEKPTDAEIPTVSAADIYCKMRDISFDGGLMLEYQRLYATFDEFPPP

[3] = biological target: T1, HSV-1 UL31 full length (1-306) with …; experiment: SEC
[4] = biological target: T2, HSV-1 UL31 full length (1-306), wild …; experiment: cryo-EM structure

B1: NEC185Δ50-SUP_(UL31) heterodimer (UL31 51-306 R229L with UL34 15-185) (complex)
chain 1: QELCLHERQRYRGLFAALAQTPSEEIAIVRSLSVPLVKTTPVSLPFCLDQTVADNCLTLSGMGYYLGIGGCCPACNAGDGRFAATSREALILAFVQQINTIFEHRAFLASLVVLADRHNAPLQDLLAGILGQPELFFVHTILRGGGACDPRLLFYPDPTYGGHMLYVIFPGTSAHLHYLLIDRMLTACPGYRFVAHVWQSTFVLVVRRNAEKPTDAEIPTVSAADIYCKMRDISFDGGLMLEYQRLYATFDEFPPP
chain 2: AFEGLVQRIRLIVPSTLRGGDGEAGPYSPSSLPSRCAFQFHGHDGSDESFPIEYVLRLMNDWAEVPCNPYLRIQNTGVSVLFQGFFHRPHNAPGGAITPERTNVILGSTETTGLSLGDLDTIKGRLGLDARPMMASMWISCFVRMPRVQLAFRFMGPEDAGRTRRILCRAA
In the case of B1, the “stoichiometry N” value (crystal structure) is reported as 6.

B2: NEC185Δ50-DN_(UL34)/SUP_(UL31) heterodimer (UL31 51-306 R229L with UL34 15-185 D35A/E37A) (complex)
chain 1: QELCLHERQRYRGLFAALAQTPSEEIAIVRSLSVPLVKTTPVSLPFCLDQTVADNCLTLSGMGYYLGIGGCCPACNAGDGRFAATSREALILAFVQQINTIFEHRAFLASLVVLADRHNAPLQDLLAGILGQPELFFVHTILRGGGACDPRLLFYPDPTYGGHMLYVIFPGTSAHLHYLLIDRMLTACPGYRFVAHVWQSTFVLVVRRNAEKPTDAEIPTVSAADIYCKMRDISFDGGLMLEYQRLYATFDEFPPP
chain 2: AFEGLVQRIRLIVPSTLRGGAGAAGPYSPSSLPSRCAFQFHGHDGSDESFPIEYVLRLMNDWAEVPCNPYLRIQNTGVSVLFQGFFHRPHNAPGGAITPERTNVILGSTETTGLSLGDLDTIKGRLGLDARPMMASMWISCFVRMPRVQLAFRFMGPEDAGRTRRILCRAA
B2: binds (crystal structure).

B3: HSV-1 UL31 residues 51-306 with R229L (SUP_UL31), crystallization construct (domain or fragment)
chain: QELCLHERQRYRGLFAALAQTPSEEIAIVRSLSVPLVKTTPVSLPFCLDQTVADNCLTLSGMGYYLGIGGCCPACNAGDGRFAATSREALILAFVQQINTIFEHRAFLASLVVLADRHNAPLQDLLAGILGQPELFFVHTILRGGGACDPRLLFYPDPTYGGHMLYVIFPGTSAHLHYLLIDRMLTACPGYRFVAHVWQSTFVLVVRRNAEKPTDAEIPTVSAADIYCKMRDISFDGGLMLEYQRLYATFDEFPPP
B3: binds (crystal structure).

B4: HSV-1 UL34 residues 1-220 with D35A/E37A (DN_UL34) (domain or fragment)
chain: MAGLGKPYTGHPGDAFEGLVQRIRLIVPSTLRGGAGAAGPYSPSSLPSRCAFQFHGHDGSDESFPIEYVLRLMNDWAEVPCNPYLRIQNTGVSVLFQGFFHRPHNAPGGAITPERTNVILGSTETTGLSLGDLDTIKGRLGLDARPMMASMWISCFVRMPRVQLAFRFMGPEDAGRTRRILCRAAEQAITRRRRTRRSREAYGAEAGLGVAGTGFRARGD
B4: binds [1].

B5: NEC220, wild-type soluble HSV-1 nuclear egress complex (UL31 1-306 with UL34 1-220) (complex)
chain 1: MYDTDPHRRGSRPGPYHGKERRRSRSSAAGGTLGVVRRASRKSLPPHARKQELCLHERQRYRGLFAALAQTPSEEIAIVRSLSVPLVKTTPVSLPFCLDQTVADNCLTLSGMGYYLGIGGCCPACNAGDGRFAATSREALILAFVQQINTIFEHRAFLASLVVLADRHNAPLQDLLAGILGQPELFFVHTILRGGGACDPRLLFYPDPTYGGHMLYVIFPGTSAHLHYRLIDRMLTACPGYRFVAHVWQSTFVLVVRRNAEKPTDAEIPTVSAADIYCKMRDISFDGGLMLEYQRLYATFDEFPPP
chain 2: MAGLGKPYTGHPGDAFEGLVQRIRLIVPSTLRGGDGEAGPYSPSSLPSRCAFQFHGHDGSDESFPIEYVLRLMNDWAEVPCNPYLRIQNTGVSVLFQGFFHRPHNAPGGAITPERTNVILGSTETTGLSLGDLDTIKGRLGLDARPMMASMWISCFVRMPRVQLAFRFMGPEDAGRTRRILCRAAEQAITRRRRTRRSREAYGAEAGLGVAGTGFRARGD
B5: binds (cryo-EM structure).

B6: NEC220-SUP_(UL31) (UL31 1-306 R229L with UL34 1-220) (complex)
chain 1: MYDTDPHRRGSRPGPYHGKERRRSRSSAAGGTLGVVRRASRKSLPPHARKQELCLHERQRYRGLFAALAQTPSEEIAIVRSLSVPLVKTTPVSLPFCLDQTVADNCLTLSGMGYYLGIGGCCPACNAGDGRFAATSREALILAFVQQINTIFEHRAFLASLVVLADRHNAPLQDLLAGILGQPELFFVHTILRGGGACDPRLLFYPDPTYGGHMLYVIFPGTSAHLHYLLIDRMLTACPGYRFVAHVWQSTFVLVVRRNAEKPTDAEIPTVSAADIYCKMRDISFDGGLMLEYQRLYATFDEFPPP
chain 2: MAGLGKPYTGHPGDAFEGLVQRIRLIVPSTLRGGDGEAGPYSPSSLPSRCAFQFHGHDGSDESFPIEYVLRLMNDWAEVPCNPYLRIQNTGVSVLFQGFFHRPHNAPGGAITPERTNVILGSTETTGLSLGDLDTIKGRLGLDARPMMASMWISCFVRMPRVQLAFRFMGPEDAGRTRRILCRAAEQAITRRRRTRRSREAYGAEAGLGVAGTGFRARGD
B6: binds (cryo-EM structure).

B7: NEC220-DN_(UL34)/SUP_(UL31) (UL31 1-306 R229L with UL34 1-220 D35A/E37A) (complex)
chain 1: MYDTDPHRRGSRPGPYHGKERRRSRSSAAGGTLGVVRRASRKSLPPHARKQELCLHERQRYRGLFAALAQTPSEEIAIVRSLSVPLVKTTPVSLPFCLDQTVADNCLTLSGMGYYLGIGGCCPACNAGDGRFAATSREALILAFVQQINTIFEHRAFLASLVVLADRHNAPLQDLLAGILGQPELFFVHTILRGGGACDPRLLFYPDPTYGGHMLYVIFPGTSAHLHYLLIDRMLTACPGYRFVAHVWQSTFVLVVRRNAEKPTDAEIPTVSAADIYCKMRDISFDGGLMLEYQRLYATFDEFPPP
chain 2: MAGLGKPYTGHPGDAFEGLVQRIRLIVPSTLRGGAGAAGPYSPSSLPSRCAFQFHGHDGSDESFPIEYVLRLMNDWAEVPCNPYLRIQNTGVSVLFQGFFHRPHNAPGGAITPERTNVILGSTETTGLSLGDLDTIKGRLGLDARPMMASMWISCFVRMPRVQLAFRFMGPEDAGRTRRILCRAAEQAITRRRRTRRSREAYGAEAGLGVAGTGFRARGD
B7: binds (cryo-EM structure).

B8: HSV-1 UL34 residues 1-220 with R139A (domain or fragment)
chain: MAGLGKPYTGHPGDAFEGLVQRIRLIVPSTLRGGDGEAGPYSPSSLPSRCAFQFHGHDGSDESFPIEYVLRLMNDWAEVPCNPYLRIQNTGVSVLFQGFFHRPHNAPGGAITPERTNVILGSTETTGLSLGDLDTIKGALGLDARPMMASMWISCFVRMPRVQLAFRFMGPEDAGRTRRILCRAAEQAITRRRRTRRSREAYGAEAGLGVAGTGFRARGD
B8: binds [2].

B9: HSV-1 UL34 residues 1-220 with K137A (domain or fragment)
chain: MAGLGKPYTGHPGDAFEGLVQRIRLIVPSTLRGGDGEAGPYSPSSLPSRCAFQFHGHDGSDESFPIEYVLRLMNDWAEVPCNPYLRIQNTGVSVLFQGFFHRPHNAPGGAITPERTNVILGSTETTGLSLGDLDTIAGRLGLDARPMMASMWISCFVRMPRVQLAFRFMGPEDAGRTRRILCRAAEQAITRRRRTRRSREAYGAEAGLGVAGTGFRARGD
B9: binds [2]; binds [3].

B10: HSV-1 UL34 residues 1-220, wild type (domain or fragment)
chain: MAGLGKPYTGHPGDAFEGLVQRIRLIVPSTLRGGDGEAGPYSPSSLPSRCAFQFHGHDGSDESFPIEYVLRLMNDWAEVPCNPYLRIQNTGVSVLFQGFFHRPHNAPGGAITPERTNVILGSTETTGLSLGDLDTIKGRLGLDARPMMASMWISCFVRMPRVQLAFRFMGPEDAGRTRRILCRAAEQAITRRRRTRRSREAYGAEAGLGVAGTGFRARGD
B10: binds [4].

B11: HSV-1 UL34 residues 1-220 with K137A/R139A (domain or fragment)
chain: MAGLGKPYTGHPGDAFEGLVQRIRLIVPSTLRGGDGEAGPYSPSSLPSRCAFQFHGHDGSDESFPIEYVLRLMNDWAEVPCNPYLRIQNTGVSVLFQGFFHRPHNAPGGAITPERTNVILGSTETTGLSLGDLDTIAGALGLDARPMMASMWISCFVRMPRVQLAFRFMGPEDAGRTRRILCRAAEQAITRRRRTRRSREAYGAEAGLGVAGTGFRARGD
B11: binds [2]; binds [3].
